The sequences below were run on Escherichia coli TOP10 (assay: shrunken log2 fold change of peptide-encoding DNA abundance (4.5 h post-induction vs induction); higher = less antimicrobial activity (less host growth inhibition)). Conditions: time post-induction: 4.5 h; library: site-saturation at positions 5, 18, 19, 20.
RRIRMRPPRLPRPRPRPWKLPRP was tested, and the “shrunken log2 fold change” value was -0.133.
With RRIRIRPPRLPRPRPRPTREPRP the “shrunken log2 fold change” value was 0.255.
In the case of RRIRQRPPRLPRPRPRPQCGPRP, the “shrunken log2 fold change” value is reported as -0.133.
In the case of RRIRVRPPRLPRPRPRPNQCPRP, the “shrunken log2 fold change” value is reported as -0.264.
In the case of RRIRTRPPRLPRPRPRPAFWPRP, the “shrunken log2 fold change” value is reported as 0.26.
With RRIRVRPPRLPRPRPRPTHPPRP the “shrunken log2 fold change” value was 0.378.
In the case of RRIRMRPPRLPRPRPRPEMIPRP, the “shrunken log2 fold change” value is reported as 2.2.
With RRIRHRPPRLPRPRPRPCIGPRP the “shrunken log2 fold change” value was -0.58.
For RRIRTRPPRLPRPRPRPCQYPRP, the “shrunken log2 fold change” value was -0.293.
RRIRGRPPRLPRPRPRPTGKPRP was tested, and the “shrunken log2 fold change” value was 0.899.
With RRIRMRPPRLPRPRPRPMAHPRP the “shrunken log2 fold change” value was -0.0858.
In the case of RRIRIRPPRLPRPRPRPQRSPRP, the “shrunken log2 fold change” value is reported as -0.0897.
RRIRFRPPRLPRPRPRPDPAPRP was tested, and the “shrunken log2 fold change” value was 0.266.
RRIRYRPPRLPRPRPRPRQEPRP was tested, and the “shrunken log2 fold change” value was -0.0183.
In the case of RRIRSRPPRLPRPRPRPCWKPRP, the “shrunken log2 fold change” value is reported as -0.169.
With RRIRIRPPRLPRPRPRPHLYPRP the “shrunken log2 fold change” value was -0.241.
With RRIRNRPPRLPRPRPRPQGVPRP the “shrunken log2 fold change” value was 0.0991.
With RRIRTRPPRLPRPRPRPFDPPRP the “shrunken log2 fold change” value was -0.112.
RRIRPRPPRLPRPRPRPPMCPRP was tested, and the “shrunken log2 fold change” value was 0.0827.
In the case of RRIRMRPPRLPRPRPRPEFWPRP, the “shrunken log2 fold change” value is reported as 0.893.
In the case of RRIRQRPPRLPRPRPRPEPMPRP, the “shrunken log2 fold change” value is reported as 0.0452.
In the case of RRIRPRPPRLPRPRPRPDNLPRP, the “shrunken log2 fold change” value is reported as -0.35.
For RRIRKRPPRLPRPRPRPVAIPRP, the “shrunken log2 fold change” value was 0.265.
For RRIRMRPPRLPRPRPRPLWSPRP, the “shrunken log2 fold change” value was -0.0373.
RRIRWRPPRLPRPRPRPLHAPRP was tested, and the “shrunken log2 fold change” value was 0.499.
For RRIRTRPPRLPRPRPRPPYTPRP, the “shrunken log2 fold change” value was -0.397.
RRIRFRPPRLPRPRPRPNGVPRP was tested, and the “shrunken log2 fold change” value was -0.0018.
RRIRSRPPRLPRPRPRPFHAPRP was tested, and the “shrunken log2 fold change” value was 0.042.
With RRIRDRPPRLPRPRPRPSWMPRP the “shrunken log2 fold change” value was -0.166.
For RRIRHRPPRLPRPRPRPICCPRP, the “shrunken log2 fold change” value was 0.055.
For RRIRSRPPRLPRPRPRPNPWPRP, the “shrunken log2 fold change” value was -0.0604.
With RRIRGRPPRLPRPRPRPTYEPRP the “shrunken log2 fold change” value was 0.318.
For RRIRHRPPRLPRPRPRPLDVPRP, the “shrunken log2 fold change” value was 0.0138.
For RRIRMRPPRLPRPRPRPLSPPRP, the “shrunken log2 fold change” value was 0.345.
In the case of RRIRQRPPRLPRPRPRPMCLPRP, the “shrunken log2 fold change” value is reported as -0.184.
For RRIRNRPPRLPRPRPRPAKAPRP, the “shrunken log2 fold change” value was 0.113.
RRIRARPPRLPRPRPRPFMSPRP was tested, and the “shrunken log2 fold change” value was -0.0065.
With RRIRWRPPRLPRPRPRPEQFPRP the “shrunken log2 fold change” value was 0.32.
RRIRCRPPRLPRPRPRPNPVPRP was tested, and the “shrunken log2 fold change” value was -0.209.
In the case of RRIRERPPRLPRPRPRPTKSPRP, the “shrunken log2 fold change” value is reported as -0.00427.
RRIRLRPPRLPRPRPRPKTDPRP was tested, and the “shrunken log2 fold change” value was -0.233.
RRIRIRPPRLPRPRPRPSVSPRP was tested, and the “shrunken log2 fold change” value was -0.0804.
In the case of RRIRSRPPRLPRPRPRPDVGPRP, the “shrunken log2 fold change” value is reported as 0.102.
In the case of RRIRDRPPRLPRPRPRPTGMPRP, the “shrunken log2 fold change” value is reported as -0.00655.
With RRIRMRPPRLPRPRPRPPEGPRP the “shrunken log2 fold change” value was 0.338.
RRIRHRPPRLPRPRPRPRPCPRP was tested, and the “shrunken log2 fold change” value was 0.227.
For RRIRMRPPRLPRPRPRPSHQPRP, the “shrunken log2 fold change” value was -0.0291.
For RRIRQRPPRLPRPRPRPYRHPRP, the “shrunken log2 fold change” value was -0.268.
With RRIRKRPPRLPRPRPRPERAPRP the “shrunken log2 fold change” value was 0.892.
RRIRVRPPRLPRPRPRPNAPPRP was tested, and the “shrunken log2 fold change” value was 0.379.
With RRIRYRPPRLPRPRPRPTEAPRP the “shrunken log2 fold change” value was 0.0329.
With RRIRCRPPRLPRPRPRPCMSPRP the “shrunken log2 fold change” value was -0.185.
RRIRFRPPRLPRPRPRPRCTPRP was tested, and the “shrunken log2 fold change” value was 0.0551.
RRIRVRPPRLPRPRPRPADPPRP was tested, and the “shrunken log2 fold change” value was 0.0239.
In the case of RRIRDRPPRLPRPRPRPCEAPRP, the “shrunken log2 fold change” value is reported as -0.0794.
For RRIRVRPPRLPRPRPRPSMHPRP, the “shrunken log2 fold change” value was -0.177.
RRIRARPPRLPRPRPRPMMCPRP was tested, and the “shrunken log2 fold change” value was 0.544.
In the case of RRIRRRPPRLPRPRPRPTEEPRP, the “shrunken log2 fold change” value is reported as 1.07.
In the case of RRIRARPPRLPRPRPRPKAPPRP, the “shrunken log2 fold change” value is reported as 0.56.
With RRIRERPPRLPRPRPRPPIGPRP the “shrunken log2 fold change” value was -0.144.

— the supplement of paper PMC9112550, “Optimization of the antimicrobial peptide Bac7 by deep mutational scanning” (BMC Biology, 2022)
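Further: peptides expressed intracellularly from a pBAD plasmid library in pooled LB shake-flask culture, induced with 0.3% L-arabinose, DNA abundance read by NGS, three biological replicates, DESeq2 with apeglm shrinkage.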
